In paper PMC13598225, “Alternative splicing of synaptotagmin 7 regulates oligomerization and short-term synaptic plasticity” (Proceedings of the National Academy of Sciences of the …, 2026):

Molecular target: T1, α-syt7cyto immobilised for HaloTag pull-down (UniProt Q9R0N7-1 38-403)
T1 construct: synaptotagmin 7, α splice variant, cytoplasmic domain; The sentence on syt1-fl says only 'immobilized syt7'; also called immobilized syt7
Assay: pull-down; HaloTag pull-down; syt7 immobilised; syt1-fl reconstituted into liposomes; Ca2+ against EGTA
Conditions: both partners purified

T1 sequence (Q9R0N7 38-403): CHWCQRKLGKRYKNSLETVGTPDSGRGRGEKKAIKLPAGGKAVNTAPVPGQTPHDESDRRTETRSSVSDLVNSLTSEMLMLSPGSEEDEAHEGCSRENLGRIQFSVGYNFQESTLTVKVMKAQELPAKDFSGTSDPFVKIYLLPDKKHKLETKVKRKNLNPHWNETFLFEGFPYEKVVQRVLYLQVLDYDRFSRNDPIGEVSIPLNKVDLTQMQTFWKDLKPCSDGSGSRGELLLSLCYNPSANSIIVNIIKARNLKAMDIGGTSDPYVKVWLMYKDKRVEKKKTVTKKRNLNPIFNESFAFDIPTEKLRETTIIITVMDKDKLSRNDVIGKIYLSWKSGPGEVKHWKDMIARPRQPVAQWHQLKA

binding in Ca2+ relative to EGTA (ratio): 1.46 ± 0.15
B1: syt1-fl reconstituted into liposomes (full-length synaptotagmin 1) (natural protein, UniProt P21707 1-421, looked up)
chain: MVSASHPEALAAPVTTVATLVPHNATEPASPGEGKEDAFSKLKQKFMNELHKIPLPPWALIAIAIVAVLLVVTCCFCVCKKCLFKKKNKKKGKEKGGKNAINMKDVKDLGKTMKDQALKDDDAETGLTDGEEKEEPKEEEKLGKLQYSLDYDFQNNQLLVGIIQAAELPALDMGGTSDPYVKVFLLPDKKKKFETKVHRKTLNPVFNEQFTFKVPYSELGGKTLVMAVYDFDRFSKHDIIGEFKVPMNTVDFGHVTEEWRDLQSAEKEEQEKLGDICFSLRYVPTAGKLTVVILEAKNLKKMDVGGLSDPYVKIHLMQNGKRLKKKKTTIKKNTLNPYYNESFSFEVPFEQIQKVQVVVTVLDYDKIGKNDAIGKVFVGYNSTGAELRHWSDMLANPRRPIAQWHTLQVEEEVDAMLAVKK
notes: synaptotagmin 1, full length (fl); Construct and host are in SI Appendix; source: reconstituted into liposomes
